Measurements as given in patent publication US20210221863A1 (Innovent, published 2021).
Changes are numbered by the printed parent chain. Read-outs that look alike come from different tables or passages of the source. Each block holds one binder with its values, some of them ahead of it.

Tests used:
[1] = molecular target: T1, IL-2Rα (CD25) on primary human CD8^+ CD25^+ T cells (human, UniProt P01589 22-272); assay: cell-based or functional assay
T1 sequence (looked up): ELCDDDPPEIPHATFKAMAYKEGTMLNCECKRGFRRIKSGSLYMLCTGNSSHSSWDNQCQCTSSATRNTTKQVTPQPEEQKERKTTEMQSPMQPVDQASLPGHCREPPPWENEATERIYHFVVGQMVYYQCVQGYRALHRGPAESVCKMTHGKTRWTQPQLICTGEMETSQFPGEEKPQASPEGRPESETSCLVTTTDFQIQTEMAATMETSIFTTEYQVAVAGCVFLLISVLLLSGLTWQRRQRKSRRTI

[2] = molecular target: T1, IL-2Rα (CD25) on primary human CD8^+ …; assay: cell-based or functional assay; remark: listed apart in the source
IL-2Rα-Biotin [3] = molecular target: T2, IL-2Rα-Biotin (Homo sapiens (Human), UniProt P01589 22-217, biotin on the avi tag (enzymatic labeling with His-BirA)); assay: BLI (Octet Red96): biotinylated receptor on SA sensor, 100 nM Fc fusion in solution
T2 construct: also called CD25; IL-2Rα receptor
T2 sequence: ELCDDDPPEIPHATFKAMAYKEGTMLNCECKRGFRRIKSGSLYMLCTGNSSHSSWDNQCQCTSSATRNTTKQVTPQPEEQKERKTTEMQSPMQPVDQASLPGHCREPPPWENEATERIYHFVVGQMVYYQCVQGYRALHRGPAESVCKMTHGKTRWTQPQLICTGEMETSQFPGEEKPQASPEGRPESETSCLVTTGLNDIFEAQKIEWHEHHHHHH

IL-2Rβ IH-Biotin [4] = molecular target: T3, IL-2Rβ IH-Biotin (Homo sapiens (Human), UniProt P14784 27-240, biotin on the avi tag (enzymatic labeling with His-BirA)); assay: BLI (Octet Red96): biotinylated receptor on SA sensor, 100 nM Fc fusion in solution, 1:1 model
T3 construct: also called IL-2Rβ IH (in house); CD122
T3 sequence: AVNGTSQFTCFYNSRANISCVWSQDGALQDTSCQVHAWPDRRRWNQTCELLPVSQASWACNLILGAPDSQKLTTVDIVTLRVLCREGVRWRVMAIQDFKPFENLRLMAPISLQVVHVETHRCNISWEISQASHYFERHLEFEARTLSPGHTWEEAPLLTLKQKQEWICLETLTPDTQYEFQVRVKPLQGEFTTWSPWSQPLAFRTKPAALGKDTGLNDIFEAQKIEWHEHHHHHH
Experimental: A BLI affinity assay was performed according to the prior art (Estep, P, et al., High throughput solution based measurement of antibody-antigen affinity and epitope binning. MAbs, 2013.5(2): p. 270-8). […] Kinetic analysis was performed on the assay results using a 1:1 binding model.

IL-2Rα-Biotin [5] = molecular target: T2, IL-2Rα-Biotin; assay: flow cytometry: yeast-displayed IL-2 stained with 50 nM IL-2Rα-Biotin
Experimental: (§1) 1. 1×10⁶ cells from each sample were centrifuged to discard the supernatant, and washed with FACS buffer once for later use; [0133] 2. the cells were added to 100 μL of FACS buffer containing 50 nM IL-2Rα-Biotin and Anti Flag antibody, and incubated at room temperature for 30 min; [0134] 3. the mixture was centrifuged at 3000 rpm, 4° C. for 3 min, and washed with pre-cooled FACS buffer twice; [0135] 4. 100 μL of FACS buffer containing SA-PE and goat anti-mouse conjugated with Alex Flour-647 was added, and the mixture was incubated on ice for 20 min away from light; [0136] 5. after being washed twice with pre-cooled FACS buffer, the cells were resuspended in 100 μL of buffer, and the binding level of IL-2^mutant to IL-2Rα was assayed by a flow cytometer (BD, ACCURI C6). […] 1. […] 2. the cells were added to 100 μL of FACS buffer containing IL-2Rβ IH-Biotin (30 nM-100 nM) and Anti Flag antibody, and incubated at room temperature for 30 min; [0139] 3. following steps 3-5 described above, the binding level of IL-2^mutant to IL-2Rβ was assayed.

IL-2Rβ IH-Biotin [6] = molecular target: T3, IL-2Rβ IH-Biotin; assay: flow cytometry: yeast-displayed IL-2 stained with IL-2Rβ IH-Biotin (30 nM-100 nM)
Experimental: as §1

EC50 (read off the curve) of p-STAT5 activation [1]: ~6 nM
EC50 (read off the curve) of p-STAT5 activation [2]: ~7 nM
binding result (IL-2Rα-Biotin [3]): no binding (tested: 100 nM)
Kd (IL-2Rβ IH-Biotin [4]): 16 nM
B1: IL-2^3X-FC fusion protein (Fc fusion, not shown: small tags and cut ends; a dimerising Fc or GST)
chain: APTSSSTKKTQLQLEHLLLDLQMILNGINNYKNPKLTDMLTFEFYMPKKATELKHLQCLERELKPLEEVLNLAQSKNFHLRPRDLISNINVIVLELKGSETTFMCEYADETATIVEFLNRWITFSQSIISTLT

binding result (IL-2Rα-Biotin [5]): no binding (tested: 50 nM)
B2: IL-2^3x displayed on the surface of yeasts (ligand, not shown: small tags and cut ends)
chain: B1 chain
notes: Control on yeast cells

binding result (IL-2Rβ IH-Biotin [6]): binds
B3: IL-2^H9 displayed on the surface of yeasts (ligand, not shown: small tags and cut ends)
chain: B1 chain with D38R, E43K, R61E, L80F, R81D, L85V, I86V, I92F
notes: Control on yeast cells
